In US20250011363A1, “OPTIMIZED SHORTENED PEPTIDE THAT BINDS TO ACETYLCHOLINE RECEPTOR, AND USE THEREOF” (SKINMED CO., LTD., priority 2021, published 2025):

The binders below were run against acetylcholine receptor (assay: SPR, AchR immobilized on CM5 chip, peptide 10 uM).

Binder | Binding affinity (RU)
KRPTEK [6mer-1-752] | 16 RU
KKTMVR [6mer-1-743] | 14 RU
KKMDIK [6mer-1-771] | 17 RU
KKEMER [6mer-1-774] | 21 RU
RKHEIK [6mer-1-744] | 31 RU
KKQYYR [6mer-1-398] | 137 RU
KRTEIR [6mer-1-773] | 29 RU
RKCCEK [6mer-1-739] | 32 RU
KKYPWR [6mer-1-775] | 12 RU
RKYHHR [6mer-1-738] | 25 RU
RKFEWK [6mer-1-768] | 32 RU
KKTSIK [6mer-1-776] | 13 RU
KKVRRR [6mer-1-394] | 149 RU
RRFHWR [6mer-1-742] | 14 RU
RKDKER [6mer-1-735] | 19 RU
KKRQTK [6mer-1-395] | 125 RU
RRTNFK [6mer-1-751] | 27 RU
KRWILR [6mer-1-399] | 125 RU
KRLYYK [6mer-1-393] | 148 RU

Binder | Binding affinity (RU)
KKATDK [6mer-1-736] | 15 RU
RRDCAK [6mer-1-763] | 12 RU
RRLYCR [6mer-1-401] | 127 RU
RKTNAR [6mer-1-770] | 29 RU
RRKNAR [6mer-1-737] | 27 RU
KRENIK [6mer-1-750] | 33 RU
KKYHHR [6mer-1-758] | 33 RU
RRQRCK [6mer-1-391] | 131 RU
KRQIQK [6mer-1-396] | 148 RU
KRMMVR [6mer-1-760] | 21 RU
KRTPDK [6mer-1-767] | 18 RU
RKEAGR [6mer-1-741] | 24 RU
KRLILR [6mer-1-397] | 125 RU
RKHNGR [6mer-1-748] | 24 RU
RKCTIR [6mer-1-766] | 15 RU
KKKMFK [6mer-1-733] | 21 RU
RKPHWR [6mer-1-749] | 33 RU
RRVQTR [6mer-1-392] | 135 RU
KKTKAR [6mer-1-762] | 13 RU

Binder | Binding affinity (RU)
KRASPK [6mer-1-765] | 25 RU
RKDNKR [6mer-1-740] | 26 RU
RKAKMK [6mer-1-756] | 33 RU
KKDTHK [6mer-1-753] | 12 RU
RKMPVK [6mer-1-769] | 14 RU
RKDNEK [6mer-1-757] | 26 RU
RKKKMK [6mer-1-754] | 24 RU
RKETFR [6mer-1-761] | 33 RU
KRNCAK [6mer-1-772] | 12 RU
RRANMR [6mer-1-755] | 25 RU
RKMTWR [6mer-1-759] | 23 RU
RRTHER [6mer-1-734] | 21 RU
RRNPFK [6mer-1-764] | 24 RU
KRWQTK [6mer-1-400] | 123 RU
RKLQQR [6mer-1-390] | 121 RU
KKTMDR [6mer-1-747] | 24 RU
RKMSVK [6mer-1-746] | 24 RU
KKTMEK [6mer-1-745] | 11 RU
